This is an account of results in US10883116B2, “Transduction buffer” (Koninklijke Nederlandse Akademie van Wetenschappen, priority 2013, dated 2021).

For series [1], the system named is murine embryonic fibroblasts (MEFs). Description: β-Lactamase protein transduction assay (CCF2-AM), protocol 3/700. The source says: To further characterize the protein transduction process we analyzed the effect of time, osmolality, transduction compound concentration and protein concentration on the transduction process. To this end, we set up a β-Lactamase protein transduction assay and measured intracellular β-Lactamase activity using CCF2-AM, an intracellular fluorescent β-Lactamase substrate that changes emission wavelength when cleaved by the enzyme (FIG. 3A). […] While we used the immortalized COS7 cell line in our initial studies, we wanted to know if the compound-mediated protein transduction would also allow the transduction of protein into primary cells. We therefore transduced murine embryonic fibroblasts (MEFs) with β-Lactamase (1 μM final concentration), using NaCl-adjusted hypertonic media (700 mOsm/Kg) and 25 mM NDSB201. β-Lactamase activity was set at 1 at the start of the experiment and relative intracellular β-Lactamase activity was measured as a function of time (FIG. 3B, bars). As a control, β-Lactamase transduction was measured in isotonic media in the presence of 25 mM NSDB201 (FIG. 3B, open circles).
β-lactamase transduction was performed using the 3/700 protocol above in murine embryonic fibroblasts (MEFs). A black, clear-bottom 96 well-plate was coated with 0.15 mg/ml of Poly-D-Lysine for 1 h at room temperature. 12,000 MEFs cells were seeded per well in MEF media without antibiotics. Next day, cells were transduced using the transduction protocol 3/700 as describe above. […] Na- or Rb-salt was added to adjust the final tonicity to 700 mOsm/Kg. […] After 3 hrs., the transduction media was replaced by fresh MEF media for 30 min. Subsequently, cells were washed once with phenol-red-free DMEM. β-lactamase activity was measured using the CCF2-AM kit following the manufacturer's instructions. In brief, 120 μl of CCF2-AM loading media was added per well and cells were incubated for 1 h at room temperature. Cells were washed two times with DMEM phenol-red free and incubated for an additional 30-60 min. Fluorescence emission was measured at […] and 510 nm following manufacturer's instructions. All tests were done in triplicate.

Series [2] deals with KBM7 cells. Format: cell-based. Particulars: human, 250 mM. As for the experimental part:
(B) BrdU incorporation rate was determined in KBM7 cells incubated with osmocytosis buffer with NDSB-201 or GABA at different time points. Untreated cells were considering as 100% of BrdU incorporation.
Next we optimized the transduction media to allow the transduction of recombinant Cas9. […] For this reason we developed a “Cas9-adapted transduction protocol” (the “fourth protocol”) with a final osmolality of 1250 mOsmol/Kg and a concentration of 250 mM of NDSB-201 (transduction compound #01) or other transduction compounds selected from the FIGS. 7A-7D. We expected that higher osmolalities and NDSBs will induce faster protein transduction but also could possibly increase the cellular toxicity. To characterize this new transduction conditions we measured BrdU incorporation upon high osmolarity (1250 mOsm/Kg) transduction at different short time points, in KBM7 cells.

Series [3] has as its system KBM7 cells. In words: CRE recombinase reporter in KBM7 cells, Cas9-adapted transduction buffer. The series is classed as cell-based, human. Particulars: 1250 mOsmol/Kg, 250 mM GABA. As for the experimental part: (C) Top panel. Schematic depiction of the CRE recombinase reporter. […] Untransduced cells express Red fluorescent protein. […] Bottom panel. KBM7 cells transduced with CRE protein with osmocytosis media at 1250 mOsmol/Kg with 250 mM GABA (compound #20) during 60 minutes. Upper panels represent fluorescent pictures in green and red channel. Bottom panels represent FACS plots showing in x axes green fluorescence and in y axes red fluorescence or frequency of events. Percentages of events are depicted in the corresponding area.
To further test the duration of the transduction with the modified transduction buffer, we performed a Cre recombinase protein transduction at 1250 mOsmol/Kg and 250 mM GABA at different time points and measured the percentage of cells with successful cre-mediated reporter activation as well as BrdU incorporation as a measure of cell proliferation and survival. Under these conditions, the optimal transduction time based on cell survival and Cre transduction was around 60 minutes. At those time points, one round of Cre protein transduction gave an 80% of GFP positive KBM7 cells. And two subsequent rounds of Cre protein transduction yielded 94% positive KBM7 (FIG. 19C). A second round of protein transduction didn't affect cell survival rate.

For series [4], the system named is MEFs cells expressing GAL3-GFP protein. In words: GAL3-GFP macropinosome vesicle leakage reporter assay. Particulars: 700/3 conditions.
Procedure: Schematic representation of the GAL3-GFP reporter assay. Upon initiation of transduction, extracellularly applied protein is taken up into macropinosomes (grey vesicles). […] At the same time, the compromised macropinosome membrane now allows entry of cytosolic GAL3-GFP protein, which binds to—and accumulates at the intra-macropinosome carbohydrates resulting in a bright fluorescent signal (white vesicles). […] GAL3-GFP cells were incubated with transduction media at 700 mOsmol/Kg with or without the macropinocytosis inhibitor EIPA. Untreated cells were included as negative control.
For transduction to occur, proteins that have been taken by macropinocytosis have to be released into the cytosol. […] To test the efficacy of potential transduction compound candidates, we set up an assay to monitor macropinosome vesicle permeation. […] We set up a reporter system in which Galectin-3 protein is fused to GFP (GAL3-GFP). Cytosolic GAL3-GFP protein relocalises to the interior of permeabilized macropinosomes, whereby a multimer complex is formed with intense green fluorescent emission. MEFs cells expressing GAL3-GFP protein were transduced using the 700/3 conditions.
Series [5] has as its system GFP-expressing murine embryonic fibroblasts (MEFs). Description: Macropinocytosis mediated uptake of TMR-dextran and BSA, confocal microscopy. The series is classed as cell-based. Particulars: 100 μM EIPA 30 min before and during transduction. As for the experimental part: To assess if the transduction buffer would permit the simultaneous transduction of proteins and large molecules, we analyzed macropinocytosis mediated uptake of TMR-dextran (red) and fluorescently labeled BSA protein (cyan) by GFP-expressing murine embryonic fibroblasts (MEFs). In brief, MEFs expressing eGFP protein (green) were incubated with 5 μg/ml of high molecular weight TMR-Dextran (red) and 1 μg of BSA-Alexa-647 (far-red) in 1× transduction media (protocol 700/3) for 30 min. Subsequently, cells were washed twice in 1× transduction buffer. Finally, cells were maintained in 1× transduction buffer and immediately analyzed by confocal microscopy. Dextran and BSA uptake was inhibited by incubating cells with 100 μM Ethylisopropylamiloride (EIPA) 30 min before and during transduction procedure.

Series [6] has as its system human induced pluripotent stem cells (iPSCs). In words: CRE recombinase dsRed-to-eGFP reporter, flow cytometry.
For series [7], the system named is murine embryonic stem cells (mESCs). Description: CRE recombinase Lox-Stop-Lox-eGFP reporter, flow cytometry.
From the text: To explore protein transduction of murine embryonic stem cells in more detail, we used a transgenic mESC line in which a CRE-recombinase inducible reporter was stably integrated in the ColA1 locus^2. […] Next we tested whether protein transduction affected ESC proliferation. After two rounds of CRE-protein transduction, the doubly transduced cells in FIG. 8B were trypsinized, seeded onto MEFs feeders, and cell proliferation was monitored by cell counting. Untransduced cells were used as a control. […] Next we explored the expression of key pluripotency factors in the double transduced mESCs by qRTPCR. […] To test the pluripotency of the transduced mESCs, double-transduced GFP+ ESCs from the experiment in FIG. 8B were injected into host blastocyst embryos and transplanted into pseudopregnant foster mice.
For series [8], the system named is murine neurospheres. Description: CRE reporter in murine neurospheres. The conditions noted are these: CRE protein transduction, protocol 12/500. Format: cell-based. The text has this: (§1) A similar strategy of CRE-recombinase mediated red-to-green reporter shift as described above, was utilized to assess the transduction of murine and human neurons, glia and neural stem cells. FIG. 10A depicts a schematic representation of the assay. […] Since the fluorescent reporter construct was introduced into the iPSC-derived glial cells and neurons using lentiviral infection, cells likely incorporated multiple copies of this reporter.
Neurospheres were transferred to a 96 well plate with 80 μl of the neuronal stem cells media. Right after, 20 μl of CRE in 5× Transduction buffer was added to cell and mixed carefully.

Series [9] has as its system murine ESCs. In words: ESC proliferation by cell counting after CRE transduction. The conditions noted are these: with or without Tat-HA2 fusion peptide. Format: cell-based. The text has this:
Top & bottom graph. After 2 days, transduced (white circle) or untransduced (grey bars) cells were counted every day to make cell proliferation curves.
Untransduced cells were used as a control.

Series [10] concerns human iPSC-derived glial cells and neurons. Description: CRE reporter in human iPSC-derived glial cells and neurons. Format: cell-based. Particulars: 5 μM CRE.
From the text: as §1

“Also recorded” adds a separate entry of the source.

For the molecule `NCCCC(=O)O` [Compound #20, gamma-aminobutyric acid], the “β-lactamase transduction activity when combined with reference compound #01 (reference set at 100%)” value in [1] (equimolar with NDSB201 (#01), 12.5 mM each, total 25 mM, 3 hours, 700 mOsm/Kg) is “largely unchanged”. Besides, the “cell survival (BrdU incorporation) in KBM7” value in [2] is on record as “much better survival than NDSB-201”. Further, the “optimal transduction time based on cell survival and Cre transduction” value in [3] is “around 60 minutes”.

For the molecule `CCN(c1nc(N)c(C(=O)N=C(N)N)nc1Cl)C(C)C` [EIPA, 5-(N-ethyl N-isopropyl)-amiloride, reference compound], the “Gal3-GFP localisation to macropinocytic vesicles (vesicle leakage)” value in series [4] is listed as “did not relocalize to vesicles”. Also, in [1] (700 mOsm/Kg, 25 mM NDSB201), the “effect on protein transduction in the presence of FGF and PDGF” value is given as “completely blocked protein transduction”. Further, in series [1] (3 hours, 1 μM β-lactamase, 700 mOsm/Kg NaCl, 25 mM NDSB201), the “effect of endocytic pathway inhibitor on protein transduction” value is recorded as “strongly inhibited; also recorded: completely inhibits protein transduction”. Besides, the “effect on Dextran and BSA transduction” value in series [5] was “inhibited”.

B1: CRE protein: recombinant CRE recombinase protein (protein, UniProt P06956 1-343, looked up)
Recombinase cre: MSNLLTVHQNLPALPVDATSDEVRKNLMDMFRDRQAFSEHTWKMLLSVCRSWAAWCKLNNRKWFPAEPEDVRDYLLYLQARGLAVKTIQQHLGQLNMLHRRSGLPRPSDSNAVSLVMRRIRKENVDAGERAKQALAFERTDFDQVRSLMENSDRCQDIRNLAFLGIAYNTLLRIAEIARIRVKDISRTDGGRMLIHIGRTKTLVSTAGVEKALSLGVTKLVERWISVSGVADDPNNYLFCRVRKNGVAAPSATSQLSTRALEGIFEATHRLIYGAKDDSGQRYLAWSGHSARVGAARDMARAGVSIPEIMQAGGWTNVNIVMNYIRNLDSETGAMVRLLEDGD
B1: the “cells shifted to eGFP expression” value in series [6] (5 μM CRE protein, 12 hours at 500 mOsm/Kg, single transduction) is given as 64%. Besides, the eGFP cells in series [6] (double CRE protein transduction, without Tat-HA2 fusion peptide) came to 78%. The “GFP+ ESCs” value in [7] (5 μM CRE, two sequential rounds, 12 hrs each at 500 mOsm/Kg with glycerol and glycine) is 79%. Moreover, the “GFP-positive mESCs” value in series [7] (Okada method (hypertonic/hypotonic), 5 μM CRE-recombinase protein) amounted to 6%. The eGFP reporter activation entry in series [8] and in series [10] was “efficient activation of the eGFP reporter” throughout. Moreover, the “ESC proliferation after two rounds of CRE protein transduction” value in series [9] is “did not affect ESC proliferation”. The “GFP positive KBM7 cells” value in series [3] (one round, around 60 minutes) stood at 80%. The “positive KBM7” value in series [3] (two subsequent rounds) amounted to 94%.
